Results taken from publication PMC4290037, “Purification and Characterization of Glucose-6-Phosphate Dehydrogenase from Camel Liver” (Enzyme Research, 2014).

Substrate: NC(=O)c1ccc[n+]([C@@H]2O[C@H](COP(=O)(O)OP(=O)(O)OC[C@H]3O[C@@H](n4cnc5c(N)ncnc54)[C@H](OP(=O)(O)O)[C@@H]3O)[C@@H](O)[C@H]2O)c1
Experiment: purified protein

B1: Glucose-6-phosphate dehydrogenase (camel liver G6PD) (Camelus dromedarius) (protein)
chain: AEQVALSRNQVCGILREELYQGDAFHQSDTHIFIIMGASGDLAKKKIYPTIWWLFRDGLLPEDTYIVGYARSRLTVADIRKQSEPFFKATPEEKPKLEEFFARNSYVAGQYDDAASYERLNSHMNALHQGSQANRLFYLALPPTVYEAVTKNIRETCMSQTGWNRIIVEKPFGRDLQSSNQLSNHISSLFREDQIYRIDHYLGKEMVQNLMVLRFANRIFGPIWNRDNIACVILTFKEPFGTEGRGGYFDEFGIIRDVMQNHLLQMLCLVAMEKPASTDSDDVRDEKVKVLKCISEVQANNVVLGQYVGNPNGEGEATKGYLDDPTVPRGSITATFAAVVLYVENERWDGVPFILRCGKALNERKAEVRLQFRDVAGDIFQQQCKRNEVVIRVQPNEAVYTKMMTKKPGMFFNPEESELDLTYGNRYKNVKLPDAYERLILDVFCGSQMHFVRSDELREAWRIFTPLLHKIEREKLQPIPYVYGSRGPAEADELMKRVGFQYEGTYKWVNPHKL
- Km: 81 µM
